# From patent US20240182536A1 (MURAL ONCOLOGY, published 2024)
# Residue numbers refer to the chain shown, from its start. Numbers in names are those of the source.
# T1: IL-18 binding protein (IL-18BP) (UniProt O95998 31-194)
# T1 sequence (looked up): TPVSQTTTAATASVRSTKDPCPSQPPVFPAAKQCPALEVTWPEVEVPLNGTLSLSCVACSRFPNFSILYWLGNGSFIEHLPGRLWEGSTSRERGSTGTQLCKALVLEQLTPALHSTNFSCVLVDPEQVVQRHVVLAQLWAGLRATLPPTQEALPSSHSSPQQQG
# T2: IL-18 receptors on HEK-Blue IL-18 reporter cells (UniProt Q13478 19-541; O95256 20-599, limits assumed)
# T2 sequence (looked up) 1: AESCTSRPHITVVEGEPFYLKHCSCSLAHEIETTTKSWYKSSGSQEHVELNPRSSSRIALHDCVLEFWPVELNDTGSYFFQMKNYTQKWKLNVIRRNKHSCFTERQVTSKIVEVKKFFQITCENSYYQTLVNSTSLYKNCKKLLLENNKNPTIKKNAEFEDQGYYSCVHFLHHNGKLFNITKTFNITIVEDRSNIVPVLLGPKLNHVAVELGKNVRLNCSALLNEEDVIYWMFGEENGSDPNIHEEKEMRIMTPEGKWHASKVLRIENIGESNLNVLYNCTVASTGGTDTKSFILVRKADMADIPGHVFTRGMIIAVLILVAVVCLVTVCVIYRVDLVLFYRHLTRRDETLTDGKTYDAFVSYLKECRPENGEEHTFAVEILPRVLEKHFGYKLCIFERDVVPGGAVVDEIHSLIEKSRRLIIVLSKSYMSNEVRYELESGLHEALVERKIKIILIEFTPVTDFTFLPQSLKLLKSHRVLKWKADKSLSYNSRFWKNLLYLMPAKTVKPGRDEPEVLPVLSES
# T2 sequence (looked up) 2: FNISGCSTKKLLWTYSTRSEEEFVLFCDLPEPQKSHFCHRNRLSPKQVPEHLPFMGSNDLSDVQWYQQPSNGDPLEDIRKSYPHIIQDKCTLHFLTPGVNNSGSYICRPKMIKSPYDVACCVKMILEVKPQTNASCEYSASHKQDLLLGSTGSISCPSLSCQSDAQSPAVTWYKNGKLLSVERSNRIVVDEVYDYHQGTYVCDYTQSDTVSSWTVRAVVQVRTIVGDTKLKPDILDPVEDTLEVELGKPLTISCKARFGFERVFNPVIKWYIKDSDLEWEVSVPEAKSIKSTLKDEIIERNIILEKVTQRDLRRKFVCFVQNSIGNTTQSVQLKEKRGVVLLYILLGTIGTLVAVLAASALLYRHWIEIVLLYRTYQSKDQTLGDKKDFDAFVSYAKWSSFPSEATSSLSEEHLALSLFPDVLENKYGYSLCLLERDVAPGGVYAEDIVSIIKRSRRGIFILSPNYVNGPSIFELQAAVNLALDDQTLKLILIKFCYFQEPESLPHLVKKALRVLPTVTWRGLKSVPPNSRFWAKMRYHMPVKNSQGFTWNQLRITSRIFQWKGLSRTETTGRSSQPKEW
# B1: IL-18 variant G3P, E6G, D54T, S55W, N91E, R104K (ligand)
# chain: YFPKLGSKLSVIRNLNDQVLFIDQGNRPLFEDMTDSDMRDNAPRTIFIISMYKTWQPRGMAVTISVKSEKISTLSSENKIISFKEMNPPDEIKDTKSDIIFFQKSVPGHDNKMQFESSSYEGYFLASEKERDLFKLILKKEDELGDRSIMFTVQNED
# B2: IL-18 variant G3S, E6Q, K53S, D54Y, S55H, N91L, R104Q (ligand)
# chain: B1 chain with P3S, G6Q, K53S, T54Y, W55H, E91L, K104Q
# B3: IL-18 variant G3Y, E6N, N91Y, R104S (ligand)
# chain: B1 chain with P3Y, G6N, T54D, W55S, E91Y, K104S
# B4: IL-18 variant G3Y, E6S, K53S, D54W, S55L, T63S, N91I (ligand)
# chain: B1 chain with P3Y, G6S, K53S, T54W, W55L, T63S, E91I, K104R
# B5: IL-18 variant G3P, E6V, K53A, D54W, S55P, T63S, N91L, R104K, Q154R (ligand)
# chain: B1 chain with G6V, K53A, T54W, W55P, T63S, E91L, Q154R
# B6: IL-18 variant G3Q, E6K, D54S, S55P, T63S, N91S, R104Q (ligand)
# chain: B1 chain with P3Q, G6K, T54S, W55P, T63S, E91S, K104Q
# B7: IL-18 variant G3N, E6S, K53Q, D54W, S55R, N91T, R104T (ligand)
# chain: B1 chain with P3N, G6S, K53Q, T54W, W55R, E91T, K104T
# B8: IL-18 variant G3Y, E6S, K53S, D54W, S55L, N91I (ligand)
# chain: B1 chain with P3Y, G6S, K53S, T54W, W55L, E91I, K104R
# B9: IL-18 variant G3Q, E6N, D54Y, S55P, T63S, N91S, R104H (ligand)
# chain: B1 chain with P3Q, G6N, T54Y, W55P, T63S, E91S, K104H
# B10: IL-18 variant G3T, E6Q, K53G, D54G, S55H, T63A, S65T, N91R, R104Q (ligand)
# chain: B1 chain with P3T, G6Q, K53G, T54G, W55H, T63A, S65T, E91R, K104Q
# B11: IL-18 variant G3R, L5W, E6H, D54Y, Q56H, N91R (ligand)
# chain: B1 chain with P3R, L5W, G6H, T54Y, W55S, Q56H, E91R, K104R
# B12: IL-18 variant G3Q, E6S, S55V, T63A, N91T (ligand)
# chain: B1 chain with P3Q, G6S, T54D, W55V, T63A, E91T, K104R
# B13: IL-18 variant G3Q, E6N (ligand)
# chain: B1 chain with P3Q, G6N, T54D, W55S, E91N, K104R
# B14: IL-18 variant G3Q, E6H, D54N, S55I, T63S, N91V (ligand)
# chain: B1 chain with P3Q, G6H, T54N, W55I, T63S, E91V, K104R
# B15: IL-18 variant G3P, E6R, D54W, S55Q, T63S, N91T, R104H (ligand)
# chain: B1 chain with G6R, T54W, W55Q, T63S, E91T, K104H
# B16: IL-18 variant G3P, E6K, K53M, D54W, S55N, T63S, N91I (ligand)
# chain: B1 chain with G6K, K53M, T54W, W55N, T63S, E91I, K104R
# B17: IL-18 variant G3I, E6D, D54A, S55F, N91Y, R104H (ligand)
# chain: B1 chain with P3I, G6D, T54A, W55F, E91Y, K104H
# Tests used:
# [1] = target: T1, IL-18 binding protein (IL-18BP); assay: cell-based or functional assay
# [2] = target: T2, IL-18 receptors on HEK-Blue IL-18 …; assay: cell-based or functional assay
Binder,"Activity, +100 nM BP, DF-1000002 [1]","Activity, +100 nM BP, DF-5000003 [1]","Activity, +100 nM BP, DF-25000004 [1]","Ratio (-BP/+BP), DF-1000005 [1]","Ratio (-BP/+BP), DF-5000006 [1]","Ratio (-BP/+BP), DF-25000007 [1]","Activity, No BP, DF-100000 [2]","Activity, No BP, DF-500000 [2]","Activity, No BP, DF-2500000 [2]"
B1,0.33,0.12,0.08,1.09,1.06,0.97,0.35,0.13,0.07
B2,0.51,0.2,0.1,0.95,0.81,0.88,0.49,0.16,0.08
B3,1.78,1.2,0.6,1.05,1.5,2.59,1.87,1.79,1.54
B4,0.62,0.23,0.12,1.09,0.99,0.84,0.68,0.23,0.1
B5,0.6,0.19,0.09,0.94,0.96,0.91,0.56,0.18,0.08
B6,1.55,1.15,0.45,1.24,1.67,3.14,1.92,1.92,1.4
B7,0.46,0.15,0.14,0.99,0.93,1.02,0.46,0.14,0.14
B8,0.78,0.26,0.12,0.9,0.95,1.22,0.7,0.24,0.15
B9,0.9,0.42,0.14,1.52,1.76,1.97,1.37,0.75,0.28
B10,0.49,0.18,0.11,1.19,1.03,1.14,0.58,0.18,0.12
B11,0.32,0.11,0.08,1.25,1.09,1.01,0.39,0.12,0.08
B12,1.15,0.46,0.15,1.68,4.03,10.7,1.94,1.84,1.61
B13,1.88,1.52,0.84,1.04,1.27,2.2,1.95,1.93,1.85
B14,1.8,1.43,0.71,1.05,1.33,2.31,1.89,1.9,1.64
B15,0.89,0.26,0.12,0.83,0.96,0.78,0.74,0.25,0.09
B16,0.65,0.2,0.09,0.98,1.07,0.91,0.64,0.21,0.08
B17,2.05,1.45,0.74,1.02,1.35,1.81,2.1,1.96,1.34
